In US8022177B2, “Peptides and calcium regulation in mammalian cells” (The Board of Trustees of the University of Illinois, priority 2005, dated 2011):

Key:
Format in all cases: cell-based
Cav3.1 [1] = target: T1, Cav3.1 (Homo sapiens, UniProt O43497); test: Whole-cell patch clamp of Cav3.1 dependent LVA calcium current in HEK-293/Cav3.1 cells transiently transfected with γ subunits (Example 1)
T1 construct: expressed in transfected cells; host or cells: HEK-293, stably transfected
Description: 2.3. Transfection. Untransfected HEK-293 cells, HEK-293 cell lines stably transfected with Cav3.1, and HL-1 cells were transiently transfected with vectors containing γ subunit, GFP, and modified CFP cDNAs using Lipofectamine 2000 reagent (InVitrogen) as per the manufacturer's recommendations. HEK-293 cells were grown to 70-80% confluence before transfection. HL-1 cells were grown to 50-75% confluence before transfection.
2.4. Electrophysiology. Whole-cell calcium currents were recorded using an Axopatch-1 D patch clamp system and Clampex 8.0 software. Pipettes were fabricated from borosilicate glass and had typical resistances of 2-4 MΩ. The pipette solution contained (in mM): 130 NaCl, 10 EGTA, 2 MgCl2, 1 CaCl2, 10 HEPES, 3 Tris-ATP, and either 0.3 Li2GTP or 0.3 Tris-GTP, adjusted to pH 7.4 with NaOH and 280 mOsm with sucrose. The bath solution contained (in mM): 137 NaCl (for HEK-293 experiments) or 120 TEACl (for HL-1 experiments), 1 KCl, 1 MgCl2, 0.33 NaH2PO4, 2 CaCl2 (for HEK-293 experiments) or 5 CaCl2 (for HL-1 experiments), 10 glucose (for HL-1 experiments only), 10 HEPES, and 30 μM TTX (for HEK-293 experiments only), adjusted to pH 7.4 with NaOH (for HEK-293 experiments) or TEAOH (for HL-1 experiments) and 280 mOsm with sucrose. NaCl was used as the major salt in the pipette solution order to eliminate any outward K+ currents.
Recordings from HEK-293 cells were made 48-96 h posttransfection, at which time expression, as measured by GFP fluorescence, peaked. HL-1 cells were used for recording 24-36 h post-transfection. Current densities in HEK-293/Cav3.1 cell experiments were normalized to control for variation in current expression in the different frozen stocks of stable cell lines used. […] HL-1 experiments were performed using a single stock of cells. All HEK-293 data are from current records in which pipette and whole-cell capacitance were about 100% compensated and series resistance was compensated to >80%. Whole-cell capacitance and series resistance were not compensated for HL-1 recordings as currents were typically <100 pA. Series resistance values were typically <10 MX, and no records were used in which the voltage error (as defined by Ver=Imax×Ra) was greater than 5 mV. The holding potential of all protocols used for HEK-293 cells was −100 mV except for steady-state inactivation protocols where the holding potential was −120 mV. The holding potential for protocols used for HL-1 cells was −90 mV. Current-voltage relationships for all HEK-293 and HL-1 cells were measured using 50 ms test depolarizations. Peak current amplitudes for activation curves were determined by fitting tail currents, elicited by stepping membrane voltage from varying test potentials to −60 mV, with the Boltzman equation. Test potential steps for activation protocols were of varied durations, corresponding to the time to peak of the elicited current. Inactivation curves were determined by fitting peak amplitudes of currents, observed in a test pulse to −20 mV, following 500 ms steps to varying potentials, with the Boltzman equation. Time to peak was determined using the current-voltage protocol described above. Inactivation time constants were determined by fitting the decay phase of currents to an exponential equation and deactivation time constants were determined by fitting the decay phase of tail currents to an exponential equation. […] Currents were recorded at 40 kHz and on-line filtered at either 5 or 10 kHz. In some cases currents were off-line filtered at 1 kHz to further reduce noise. Current/voltage relationships and tail currents were recorded from HEK cells using an on-line P/−4 subtraction procedure. Calcium currents recorded from HL-1 cells were off-line leak subtracted. The average membrane capacitance of untransfected HEK-293 cells in pilot experiments was 12.5±1.4 pF (n=8). […]

Cav3.1 [2] = target: T1, Cav3.1; test: Whole-cell patch clamp of Cav3.1 LVA current in HEK/Cav3.1 cells transfected with γ6/γ4 chimeric and truncated constructs (Example 2); settings: Table 1 (Example 2)
Description: Transfection—HEK-293 cell lines stably transfected with Cav3.1 were transiently transfected with vectors containing γ subunit cDNAs using Lipofectamine 2000 reagent (Invitrogen) as per the manufacturer's recommendations. HEK-293 cells were grown to 70-80% confluence before transfection.
Electrophysiology—Whole-cell calcium currents were recorded using an Axopatch-1D patch clamp system and Clampex 8.0 software. Pipettes were fabricated from borosilicate glass and had typical resistances of 2-4 MΩ. The pipette solution contained (in mM): 130 NaCl, 10 EGTA, 2 MgCl2, 1 CaCl2, 10 HEPES, 3 Tris-ATP, and 0.3 Tris-GTP, adjusted to pH 7.4 with NaOH and 280 mOsm with sucrose. The bath solution contained (in mM): 137 NaCl, 1 KCl, 1 MgCl2, 0.33 NaH2PO4, 2 CaCl2, 10 HEPES, and 30 μM TTX, adjusted to pH 7.4 with NaOH and 280 mOsm with sucrose.
Recordings from HEK-293 cells were made 48-96 hours post-transfection, at which time expression, as measured by GFP fluorescence, peaked. All HEK-293 data is from current records in which pipette and whole-cell capacitance were about 100% compensated and series resistance was compensated to >80%. Series resistance values were typically <10 MΩ (megaohms), and no records were used in which the voltage error (as defined by Ver=Imax×Ra) was greater than 5 mV. The holding potential of all protocols used for HEK-293 cells was −100 mV except for steady-state inactivation protocols where the holding potential was −120 mV. Current-voltage relationships for all HEK-293 cells were measured using 50 ms test depolarizations. Peak current amplitudes for activation curves were determined by fitting tail currents, elicited by stepping membrane voltage from varying test potentials to −60 mV, with the Boltzman equation. Test potential steps for activation protocols were of varied durations, corresponding to the time to peak of the elicited current. Inactivation curves were determined by fitting peak amplitudes of currents, observed in a test pulse to −20 mV, following 500 ms steps to varying potentials, with the Boltzman equation. Time to peak was determined using the current-voltage protocol described above. Inactivation time constants were determined by fitting the decay phase of currents to an exponential equation and deactivation time constants were determined by fitting the decay phase of tail currents to an exponential equation. […] When a double exponential equation was used to fit Cav3.1 tail currents, the magnitude of the fast component was about 10 fold that of the slow component. Currents were recorded at 40 kHz and on-line filtered at 5. In some cases currents were off-line filtered at 1 kHz to further reduce noise. Current-voltage relationships and tail currents were recorded from HEK cells using an on-line P/−4 subtraction procedure. The average membrane capacitance of untransfected HEK-293 cells in pilot experiments was 12.5+/−0.4 pF (n=8).
Statistical Analysis—All data are reported as mean±SEM and tested for significance by one-way ANOVA. A value of P<0.05 was considered significant and when significant p-values were encountered groups were compared using the Tukey post-hoc test.

Cav3.1 [3] = target: T1, Cav3.1; test: Whole-cell patch clamp of Cav3.1 current in Cav3.1/HEK cells transfected with chimeras, truncations and point mutants (Example 6); settings: FIG. 38, FIG. 41
Description: Transfection. HEK-293 cells stably transfected with either Cav3.1 or Cav3.2 were transiently transfected, at 50% confluency, with a bicistronic vector encoding both GFP and γ subunit cDNA's using Lipofectamine 2000 reagent (Invitrogen, Carlsbad, Calif.) as per the manufacturer's recommendations. Cells were visualized using an Nikon inverted microscope with an FITC filter.
Electrophysiology. Whole cell Ca^2+ currents were recorded using an Axon Instruments Axopatch-1D amplifier and Clampex 8.0 software. Pipettes were made from boroscillicate glass and had typical resistances of 2-4 Mohms. The pipette solution contained (in mM) 130 NaCl, 10 EGTA, 2 or 5 MgCl2, 1 CaCl2, 10 HEPES, 3 Tris-ATP, and 0.3 Li2GTP. Two different bath solutions were used. The first, used for experiments with γ subunit chimeras, contained (in mM) 130 NaCl, 1 MgCl2, 2 CaCl2, 10 glucose, 10 HEPES, and 0.03 TTX. The second, used for experiments with γ subunit containg point mutations, contained (in mM) 137 NaCl, 1 KCl, 1 MgCl2, 0.33 NaH2PO4, 2 CaCl2, 10 HEPES. All solutions were adjusted to pH 7.4 with NaOH and 280 mOsm with sucrose. No Cl^− currents were evident in any HEK-293 cells line, stably transfected or not, and no attempt was made to eliminate Cl^− currents from data records.
All electrophysiological data are from current records in which voltage offset was adjusted, pipette capacitance and whole cell capacitance were compensated and series resistance was compensated to >80%. Currents were filtered at 10 kHz and recorded at 40 kHz. In some cases, current records were off-line filtered at 1K. Current voltage relationships were recorded using an on-line P/−4 subtraction procedure to eliminate linear capacitative and leakage currents. Only recordings with less than 50 pA leakage current were used.
Several different protocols were used to determine the biophysical characteristics of currents in HEK-293 cells. The voltage dependence of activation was determined using “tail” currents. Cells were depolarized from a holding potential of −100 mV to test potentials ranging from −90 mV to +60 mV. Pulse durations varied and corresponded to the time to peak current measured at the corresponding test potentials. Following the conditioning pulse cells were re-polarized to −60 mV and the amplitude of the resulting “tail” current measured. The voltage dependence of inactivation was measured by depolarizing the cells to voltages ranging from −120 mV to 50 mV for 500 ms to inactivate the Ca^2+ channels. After this conditioning step the membrane was returned to the holding potential (−100 mV) for 3 ms and then depolarized a second time to +20 mV for 150 ms during which time the peak current was measured. Time constants for inactivation were measured by fitting a single exponential equation to the decay phase of currents elicited by voltage steps from −50 to +30 mV from a holding potential of −100 mV. Time constants for deactivation were measured by fitting either a single or a double exponential to the decay phase of tail currents.
To account for the inherent variation in calcium current density in the HEK-Cav3.1 stable cell line the averaged current density of each test group of cells was normalized to the mean current density of a control group of cells. A minimum of 5 cells (typically 7 to 10) from each group was used to calculate the mean current densities of test and control cells. At least two independent transfections were performed for each test condition. […]

T1 sequence (O43497 whole entry): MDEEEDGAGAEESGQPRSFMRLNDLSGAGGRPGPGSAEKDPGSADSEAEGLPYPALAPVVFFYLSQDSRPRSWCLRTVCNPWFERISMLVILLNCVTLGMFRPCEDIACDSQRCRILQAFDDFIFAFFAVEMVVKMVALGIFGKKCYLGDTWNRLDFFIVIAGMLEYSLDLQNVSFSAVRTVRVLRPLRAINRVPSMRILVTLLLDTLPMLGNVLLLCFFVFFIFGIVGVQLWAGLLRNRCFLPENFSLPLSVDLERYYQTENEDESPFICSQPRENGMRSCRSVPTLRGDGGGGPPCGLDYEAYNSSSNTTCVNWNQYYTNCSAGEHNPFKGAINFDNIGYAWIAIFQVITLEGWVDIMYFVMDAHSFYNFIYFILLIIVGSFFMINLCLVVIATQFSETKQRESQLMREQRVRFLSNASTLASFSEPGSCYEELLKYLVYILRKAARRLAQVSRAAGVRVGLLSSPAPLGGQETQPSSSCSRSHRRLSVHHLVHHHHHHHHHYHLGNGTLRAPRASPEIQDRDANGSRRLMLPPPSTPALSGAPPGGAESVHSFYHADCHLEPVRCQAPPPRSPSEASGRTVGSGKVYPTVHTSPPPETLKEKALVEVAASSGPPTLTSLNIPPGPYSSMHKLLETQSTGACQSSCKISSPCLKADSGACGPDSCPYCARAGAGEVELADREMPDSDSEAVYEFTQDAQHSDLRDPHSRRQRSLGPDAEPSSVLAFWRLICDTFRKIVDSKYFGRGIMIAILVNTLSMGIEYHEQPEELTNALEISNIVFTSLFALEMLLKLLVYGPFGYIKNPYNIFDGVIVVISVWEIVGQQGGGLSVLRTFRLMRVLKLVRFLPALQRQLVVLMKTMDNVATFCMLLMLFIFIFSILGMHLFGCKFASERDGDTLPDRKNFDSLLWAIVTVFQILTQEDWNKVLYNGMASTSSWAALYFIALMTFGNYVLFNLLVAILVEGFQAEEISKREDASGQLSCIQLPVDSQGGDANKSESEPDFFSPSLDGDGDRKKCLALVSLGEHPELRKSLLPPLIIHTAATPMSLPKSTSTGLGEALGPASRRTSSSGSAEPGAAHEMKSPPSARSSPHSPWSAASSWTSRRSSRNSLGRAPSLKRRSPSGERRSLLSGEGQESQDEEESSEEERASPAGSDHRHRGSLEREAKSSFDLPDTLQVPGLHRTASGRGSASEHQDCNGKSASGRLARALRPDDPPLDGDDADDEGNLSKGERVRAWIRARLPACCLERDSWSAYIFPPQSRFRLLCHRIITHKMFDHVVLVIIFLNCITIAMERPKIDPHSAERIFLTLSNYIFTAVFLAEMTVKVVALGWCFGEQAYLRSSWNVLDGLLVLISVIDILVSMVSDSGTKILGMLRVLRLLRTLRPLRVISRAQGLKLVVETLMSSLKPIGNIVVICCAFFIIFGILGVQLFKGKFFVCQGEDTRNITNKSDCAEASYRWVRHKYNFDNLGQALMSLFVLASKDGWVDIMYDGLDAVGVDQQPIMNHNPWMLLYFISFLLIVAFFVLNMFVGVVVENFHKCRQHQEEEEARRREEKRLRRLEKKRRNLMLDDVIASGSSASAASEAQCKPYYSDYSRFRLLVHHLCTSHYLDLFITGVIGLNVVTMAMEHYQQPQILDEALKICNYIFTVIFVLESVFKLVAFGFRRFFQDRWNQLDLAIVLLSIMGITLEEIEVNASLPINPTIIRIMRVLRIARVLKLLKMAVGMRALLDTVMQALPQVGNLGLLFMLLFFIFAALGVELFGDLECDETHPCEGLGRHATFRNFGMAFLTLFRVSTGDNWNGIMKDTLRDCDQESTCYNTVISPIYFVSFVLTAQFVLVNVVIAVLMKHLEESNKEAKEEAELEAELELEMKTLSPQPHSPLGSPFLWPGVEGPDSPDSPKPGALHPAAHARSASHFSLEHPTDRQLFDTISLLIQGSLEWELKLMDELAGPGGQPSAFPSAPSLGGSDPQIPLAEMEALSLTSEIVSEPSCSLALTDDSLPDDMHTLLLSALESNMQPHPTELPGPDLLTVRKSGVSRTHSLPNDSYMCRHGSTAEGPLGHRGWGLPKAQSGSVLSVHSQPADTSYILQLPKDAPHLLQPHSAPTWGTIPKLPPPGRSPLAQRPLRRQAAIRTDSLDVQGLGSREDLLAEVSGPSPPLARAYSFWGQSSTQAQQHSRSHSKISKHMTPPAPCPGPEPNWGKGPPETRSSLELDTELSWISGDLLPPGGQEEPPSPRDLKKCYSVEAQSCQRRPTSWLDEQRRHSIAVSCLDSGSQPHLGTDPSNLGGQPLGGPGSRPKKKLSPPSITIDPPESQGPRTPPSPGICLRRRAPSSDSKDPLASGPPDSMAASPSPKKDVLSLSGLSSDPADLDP

B1: γ6S: rat calcium channel γ6 subunit, short isoform (AF361344), SEQ ID NO:49 (protein, listed as Rattus norvegicus)
chain: MMWSNFFMQEEDRRRTAVGRRRAQEQQNLGLTPEREGKIKLGLLVAIVGATLAVLAVGTEFWVELNTYKTNGSAVCEAAHLGLWKVCIKRLWQADVPAGRETCGPAELPGEANCTYFKFFTTGENAHIFQRTTKKGLLLFVSLEVFRHSVRALLQGVNPETPPAPRLAYEYSWSLGCGVGAGLILLLGGVCFLLLTLPSWPWRSLCPKRGGPTA
Cav3.1 [1]; HEK-293/Cav3.1
  Effect on current kinetics or voltage dependency: did not alter current kinetics or voltage dependency
Cav3.1 [1]; HEK-293/Cav3.1, normalized to adCGI vector control, mean±S.E.M.
  Peak current density, % of control value: 31%±13%
Cav3.1 [1]; Table 2
  Activation V 0.5: −36.3 ± 6.2 (n = 4) mV
  Activation k: 12.7 ± 1.5 (n = 4)
  Deactivation tau @ −100 mV, Fast: 1.20 ± 0.06 (n = 3) ms
  Inactivation Tau @ −20 mV: 22.9 ± 0.7 (n = 2) ms
  Inactivation V 0.5: −72.0 ± 5.9 (n = 3) mV
  Inactivation k: 5.9 ± 0.7 (n = 3)
  Time to peak @ −20 mV: 6.4 ± 0.5 (n = 3) ms
  V peak: −27.0 ± 2.5 (n = 5) mV
Cav3.1 [1]; co-expression with Cav3.1 in HEK-293 cells
  Decrease in Cav3.1 current density: 69%
Cav3.1 [2]
  Activation V 0.5: −36.3 ± 6.2 (n = 4) mV
  Activation k: 12.7 ± 1.5 (n = 4)
  Deactivation tau @ −100 mV, Fast: 1.20 ± 0.06 (n = 3) ms
  Inactivation V 0.5: −72.0 ± 5.9 (n = 3) mV
  Inactivation k: 5.9 ± 0.7 (n = 3)
  Inactivation tau @−20 mV: 22.9 ± 0.7 (n = 2) ms
  Time to peak @ −20 mV: 6.4 ± 0.5 (n = 3) ms
  V peak: −27.0 ± 2.5 (n = 5) mV

B2: γ1 T12G: γ1 single mutant containing just part of the GXXXA motif (protein, UniProt Q06432 1-222, looked up, variant T12G)
Voltage-dependent calcium …: MSQTKMLKVRVGLFCILAGIVLAMTAVVTDHWAVLSPHMEHHNTTCEAAHFGLWRICTKRIPMDDSKTCGPITLPGEKNCSYFRHFNPGESSEIFEFTTQKEYSISAAAIAIFSLGFIILGSLCVLLSLGKKRDYLLRPASMFYAFAGLCILVSVEVMRQSVKRMIDSEDTVWIEYYYSWSFACACAAFILLFLGGLALLLFSLPRMPRNPWESCMDAEPEH
Cav3.1 [3]
  Effect on Cav3.1 calcium current density: no effect

B3: γ1 (T12G, I16A): γ1 double mutant containing the complete GXXXA motif in TM1 (protein, UniProt Q06432 1-222, looked up, variant T12G I16A)
Voltage-dependent calcium …: MSQTKMLKVRVGLFCALAGIVLAMTAVVTDHWAVLSPHMEHHNTTCEAAHFGLWRICTKRIPMDDSKTCGPITLPGEKNCSYFRHFNPGESSEIFEFTTQKEYSISAAAIAIFSLGFIILGSLCVLLSLGKKRDYLLRPASMFYAFAGLCILVSVEVMRQSVKRMIDSEDTVWIEYYYSWSFACACAAFILLFLGGLALLLFSLPRMPRNPWESCMDAEPEH
Cav3.1 [3]
  Effect on Cav3.1 calcium current density: significantly inhibited
